# Laboratory results from patent US11912794B2, “Modulation of structured polypeptide specificity” (BicycleRD Limited, priority 2011, dated 2024).
# Target: biotinylated human plasma Kallikrein (Homo sapiens, UniProt P03952)
# Assay: Phage binding assay of individual clones, randomisation of peptide domains
# Details: WPAR domain fixed, positions 1, 6, 7, 8, 9 & 10 randomised; top 50
# Source text: Library construction: Small phage libraries were generated according to the methods of Heinis et al as described in ‘Cloning of phage libraries’ above. The sficx3ba primer was modified such that the bicycle-encoding portion was based on a parent 5×5 bicycle (5×5: two 5-residue loops) DNA sequence with only 4-6 codons randomized to NNS. The randomized codons were those encoding the peptide domain/motif of interest.
# Assay of binding of individual clones: Library transformant colonies, or selection output colonies, were picked and grown as individual cultures in 2TY broth containing selective antibiotic. The picked colonies were DNA-sequenced using a QIAgen PyroMark Q96 DNA sequencer to reveal the amino-acid substitution present in each clone, and were assayed for human plasma Kallikrein binding as follows. The phage-containing supernatant was harvested from the culture and phage were cyclised with tris bromomethyl benzene(TBMB) based on the methods of Heinis et al (Nature Chemical Biology vol. 5 pp 502-507 (2009)). The purified phage from this process were assayed for binding to biotinylated human plasma Kallikrein using a homogeneous plate-based binding assay; assay read-out measured on a BMG Labtech Pherastar FS plate reader. The quantitative binding data from duplicate assay samples was averaged (mean) and expressed as signal:background. Assay data shown is representative of at least 2 independent experiments. The assay data was correlated with the peptide sequences.
# The WPAR (SEQ ID NO: 18) motif identified from Example 1 was analysed in the context of the 06-34-03 peptide, in order to identify alternatives or improvements to the WPAR (SEQ ID NO: 18) motif. A library was constructed where positions 1, 6, 7, 8, 9 &10 of 06-34-03 were fixed and positions 2, 3, 4 & 5 were randomised (see ‘Randomisation of peptide domains—Library construction’ in Methods above). Selections against human plasma Kallikrein were performed at a variety of stringencies (see Phage selections' in Methods above). All output sequences were identified and analysed for target binding (see ‘Randomisation of peptide domains—Assay of binding of individual clones’ in Methods above). Table 17 lists each unique sequence, its relative abundance in the selection output (frequency), and a rank number according to target binding strength.
# Selections against human plasma Kallikrein were performed with this library in order to study the non-WPAR (SEQ ID NO: 18) determinants of Kallikrein binding, and to isolate the optimal WPAR (SEQ ID NO: 18)-containing peptide sequence. Over 150 selection output sequences were isolated and screened for binding to human plasma Kallikrein (as described in Methods above). The sequences were ranked in order of Kallikrein binding and the top 50 sequences were aligned in Table 19. […]
# Chain of biotinylated human plasma Kallikrein (P03952 20-638): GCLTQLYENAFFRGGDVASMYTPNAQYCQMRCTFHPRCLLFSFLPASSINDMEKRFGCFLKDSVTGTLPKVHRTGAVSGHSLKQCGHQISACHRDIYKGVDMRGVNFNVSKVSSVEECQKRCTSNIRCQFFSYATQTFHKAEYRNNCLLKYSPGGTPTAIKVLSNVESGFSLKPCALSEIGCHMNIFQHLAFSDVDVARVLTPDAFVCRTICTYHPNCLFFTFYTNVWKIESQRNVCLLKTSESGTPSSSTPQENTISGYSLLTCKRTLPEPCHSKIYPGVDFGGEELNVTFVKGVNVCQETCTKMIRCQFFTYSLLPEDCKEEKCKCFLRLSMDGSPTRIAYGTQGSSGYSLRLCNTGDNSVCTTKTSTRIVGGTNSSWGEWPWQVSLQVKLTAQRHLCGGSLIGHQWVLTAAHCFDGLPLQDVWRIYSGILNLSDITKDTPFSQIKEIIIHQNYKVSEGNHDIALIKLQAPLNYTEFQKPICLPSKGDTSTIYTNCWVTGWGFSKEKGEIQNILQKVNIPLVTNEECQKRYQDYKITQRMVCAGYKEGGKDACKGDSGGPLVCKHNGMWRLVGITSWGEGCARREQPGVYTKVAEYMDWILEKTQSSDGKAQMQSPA
row,Rank (sequences ranked according to Kallikrein binding),Substance
1,34,SEQ ID NO: 147 (CSWPARCIHQDLC; Synthetic sequence Kallikrein binder containing a WPAR motif)
2,35,SEQ ID NO: 148 (CTWPARCTHTDMC; Synthetic sequence Kallikrein binder containing a WPAR motif)
3,36,SEQ ID NO: 149 (CAWPARCTHTHLC; Synthetic sequence Kallikrein binder containing a WPAR motif)
4,37,SEQ ID NO: 150 (CAWPARCLHADMC; Synthetic sequence Kallikrein binder containing a WPAR motif)
5,38,SEQ ID NO: 151 (CAWPARCLHQDWC; Synthetic sequence Kallikrein binder containing a WPAR motif)
6,39,SEQ ID NO: 152 (CDWPARCMHQEFC; Synthetic sequence Kallikrein binder containing a WPAR motif)
7,40,SEQ ID NO: 153 (CAWPARCTHQTMC; Synthetic sequence Kallikrein binder containing a WPAR motif)
8,41,SEQ ID NO: 154 (CTWPARCLHQHMC; Synthetic sequence Kallikrein binder containing a WPAR motif)
9,42,SEQ ID NO: 155 (CSWPARCVHQDMC; Synthetic sequence Kallikrein binder containing a WPAR motif)
10,43,SEQ ID NO: 156 (CEWPARCLHTDLC; Synthetic sequence Kallikrein binder containing a WPAR motif)
11,44,SEQ ID NO: 157 (CLWPARCLTTELC; Synthetic sequence Kallikrein binder containing a WPAR motif)
12,45,SEQ ID NO: 158 (CSWPARCTHAEMC; Synthetic sequence Kallikrein binder containing a WPAR motif)
13,46,SEQ ID NO: 159 (CRWPARCTHTDLC; Synthetic sequence Kallikrein binder containing a WPAR motif)
14,47,SEQ ID NO: 160 (CTWPARCTHQAFC; Synthetic sequence Kallikrein binder containing a WPAR motif)
15,48,SEQ ID NO: 161 (CSWPARCTHSDLC; Synthetic sequence Kallikrein binder containing a WPAR motif)
16,49,SEQ ID NO: 162 (CSWPARCLHDDLC; Synthetic sequence Kallikrein binder containing a WPAR motif)
17,50,SEQ ID NO: 163 (CPWPARCLHTDLC; Synthetic sequence Kallikrein binder containing a WPAR motif)
18,2,SEQ ID NO: 208 (CSWPARCTHQDLC; Synthetic sequence 06-34-03)

# Same assay, conditions: randomised WPAR motif at positions 2, 3, 4 & 5 within the 06-34-03 sequence; 1 = best binding
row,Rank (sequences ranked according to Kallikrein binding),Substance
1,3,"SEQ ID NO: 75 (CSFPFRCTHQDLC; Synthetic sequence Kallikrein binder identified from selections using a randomised WPAR motif at positions 2, 3, 4 & 5 within the 06-34-03 sequence of PCT/EP2012/069898 (SEQ ID NO 58))"
2,12,"SEQ ID NO: 84 (CSFPFRCTHQDLC; Synthetic sequence Kallikrein binder identified from selections using a randomised WPAR motif at positions 2, 3, 4 & 5 within the 06-34-03 sequence of PCT/EP2012/069898 (SEQ ID NO 58))"

# Target: T1, Biotinylated hPK (Homo sapiens, UniProt P03952)
# T1 construct: IHPKA, from human plasma; purchased Innovative Research, Novi, MI, USA IHPKA; host or cells: human plasma
# T1 sequence (P03952 20-638): as above
# Assay: Phage selections, abundance of sequences in selection outputs
# Assay type: binding
# Details: randomised WPAR motif at positions 2, 3, 4 & 5 within the 06-34-03 sequence
row,Frequency (relative abundance in the total selection outputs),Substance
1,17,"SEQ ID NO: 75 (CSFPFRCTHQDLC; Synthetic sequence Kallikrein binder identified from selections using a randomised WPAR motif at positions 2, 3, 4 & 5 within the 06-34-03 sequence of PCT/EP2012/069898 (SEQ ID NO 58))"
2,2,"SEQ ID NO: 84 (CSFPFRCTHQDLC; Synthetic sequence Kallikrein binder identified from selections using a randomised WPAR motif at positions 2, 3, 4 & 5 within the 06-34-03 sequence of PCT/EP2012/069898 (SEQ ID NO 58))"
